Measured values taken from the Immune Epitope Database (IEDB).
Each block holds one sequence with its values, some of them ahead of it.

Columns and labels:
HLA-B*73:01 = test: IEDB peptide-MHC binding, purified MHC/competitive/fluorescence; filed as Kd, often an IC50 or EC50 that approximates it; ≥ and ≤ were set here for values at or beyond the usual limits of such assays
HLA-A*24:03 = test: IEDB peptide-MHC binding, purified MHC/direct/fluorescence; filed as Kd, often an IC50 or EC50 that approximates it; ≥ and ≤ were set here for values at or beyond the usual limits of such assays; conditions: source organism: Mammarenavirus lassaense
HLA-C*04:01 [1] = test: as above
HLA-C*06:02 = test: as above
HLA-A*01:01 = test: as above
HLA-A*02:01 [2] = test: as above
HLA-A*03:01 = test: as above; conditions: source organism: Mycobacterium tuberculosis
HLA-A*11:01 = test: as above; conditions: source organism: Mycobacterium tuberculosis
HLA-A*26:01 = test: as above
HLA-A*31:01 = test: as above
HLA-A*69:01 = test: as above
HLA-B*08:01 = test: as above
HLA-B*08:02 = test: as above; conditions: source organism: Mycobacterium tuberculosis str. Haarlem
HLA-B*15:09 = test: as above; conditions: source organism: Mycobacterium tuberculosis str. Haarlem
HLA-B*15:17 = test: as above; conditions: source organism: Mycobacterium tuberculosis
HLA-B*18:01 = test: as above; conditions: source organism: Mycobacterium tuberculosis
HLA-B*27:05 [3] = test: as above
HLA-B*38:01 = test: as above; conditions: source organism: Mycobacterium tuberculosis str. Haarlem
HLA-B*39:01 = test: as above; conditions: source organism: Mycobacterium tuberculosis str. Haarlem
HLA-B*40:01 [4] = test: as above
HLA-B*46:01 = test: as above; conditions: source organism: Mycobacterium tuberculosis
HLA-B*48:01 = test: as above; conditions: source organism: Mycobacterium tuberculosis
HLA-B*51:01 = test: as above; conditions: source organism: Mycobacterium tuberculosis
HLA-B*57:01 = test: as above; conditions: source organism: Mycobacterium tuberculosis
HLA-B*58:01 = test: as above
HLA-B*15:01 [5] = test: IEDB peptide-MHC binding, purified MHC/competitive/fluorescence; filed as Kd, often an IC50 or EC50 that approximates it; ≥ and ≤ were set here for values at or beyond the usual limits of such assays; conditions: source organism: Mycobacterium tuberculosis variant bovis BCG str. Pasteur 1173P2
HLA-B*15:42 = test: as above
HLA-B*45:06 = test: as above
HLA-B*83:01 = test: as above
HLA-A*02:01 [6] = test: IEDB peptide-MHC binding, cellular MHC/competitive/fluorescence; ≥ and ≤ were set here for values at or beyond the usual limits of such assays; conditions: source organism: Mycobacterium tuberculosis
HLA-C*05:01 = test: IEDB peptide-MHC binding, purified MHC/direct/fluorescence; filed as Kd, often an IC50 or EC50 that approximates it; ≥ and ≤ were set here for values at or beyond the usual limits of such assays; conditions: source organism: Shewanella sp. W3-18-1
HLA-A*32:07 = test: IEDB peptide-MHC binding, purified MHC/competitive/fluorescence; filed as Kd, often an IC50 or EC50 that approximates it; ≥ and ≤ were set here for values at or beyond the usual limits of such assays; conditions: source organism: Shewanella sp. W3-18-1
HLA-A*32:15 = test: as above; conditions: source organism: Shewanella sp. W3-18-1
HLA-B*27:05 [7] = test: as above; conditions: source organism: Influenza A virus (A/Waikato/7/2000(H3N2))
HLA-B*35:01 = test: IEDB peptide-MHC binding, cellular MHC/competitive/fluorescence; ≥ and ≤ were set here for values at or beyond the usual limits of such assays; conditions: source organism: Mycobacterium tuberculosis H37Rv
HLA-A*30:01 = test: IEDB peptide-MHC binding, purified MHC/direct/fluorescence; filed as Kd, often an IC50 or EC50 that approximates it; ≥ and ≤ were set here for values at or beyond the usual limits of such assays; conditions: source organism: Stutzerimonas stutzeri
HLA-B*07:02 = test: as above; conditions: source organism: Stutzerimonas stutzeri
HLA-B*15:01 [8] = test: as above; conditions: source organism: Stutzerimonas stutzeri
HLA-B*40:01 [9] = test: IEDB peptide-MHC binding, purified MHC/competitive/fluorescence; filed as Kd, often an IC50 or EC50 that approximates it; ≥ and ≤ were set here for values at or beyond the usual limits of such assays; conditions: source organism: Salmonella enterica subsp. enterica serovar Typhi
HLA-C*04:01 [10] = test: as above; conditions: source organism: Salmonella enterica subsp. enterica serovar Typhi
HLA-C*07:02 = test: IEDB peptide-MHC binding, purified MHC/direct/fluorescence; filed as Kd, often an IC50 or EC50 that approximates it; ≥ and ≤ were set here for values at or beyond the usual limits of such assays; conditions: source organism: Campylobacter jejuni
HLA-A*24:02 = test: IEDB peptide-MHC binding, purified MHC/competitive/fluorescence; filed as Kd, often an IC50 or EC50 that approximates it; ≥ and ≤ were set here for values at or beyond the usual limits of such assays; conditions: source organism: Campylobacter jejuni
[11] = source organism: Mycobacterium tuberculosis
[12] = source organism: Mycobacterium tuberculosis str. Haarlem
[13] = source organism: Mycobacterium tuberculosis variant bovis BCG str. Pasteur 1173P2
[14] = source organism: Salmonella enterica subsp. enterica serovar Typhimurium
[15] = source organism: Shewanella sp. W3-18-1
[16] = source organism: Stutzerimonas stutzeri
[17] = source organism: Salmonella enterica subsp. enterica serovar Typhi

Sequence: SRFLRRPAQ
Kd (HLA-B*73:01; source organism: Burkholderia vietnamiensis G4): 0.67 µM

Sequence: FYADPKRYF
Kd (HLA-A*24:03): 0.008 µM
Kd (HLA-C*04:01 [1]; source organism: Mammarenavirus lassaense): ≥ 20 µM

Kd (HLA-C*06:02; source organism: Aquifex aeolicus VF5): 0.173 µM
Sequence: CRRLNTKYL

Sequence: RPRRASSPF
Kd (HLA-A*01:01; [11]): ≥ 20 µM
Kd (HLA-A*02:01 [2]; [11]): ≥ 20 µM
Kd (HLA-A*03:01): ≥ 20 µM
Kd (HLA-A*11:01): ≥ 20 µM
Kd (HLA-A*26:01; [12]): ≥ 20 µM
Kd (HLA-A*31:01; [11]): ≥ 20 µM
Kd (HLA-A*69:01; [11]): ≥ 20 µM
Kd (HLA-B*08:01; [12]): 0.036 µM
Kd (HLA-B*08:02): 9.48 µM
Kd (HLA-B*15:09): ≥ 20 µM
Kd (HLA-B*15:17): 0.273 µM
Kd (HLA-B*18:01): 9.95 µM
Kd (HLA-B*27:05 [3]; [11]): ≥ 20 µM
Kd (HLA-B*38:01): ≥ 20 µM
Kd (HLA-B*39:01): ≥ 20 µM
Kd (HLA-B*40:01 [4]; [11]): ≥ 20 µM
Kd (HLA-B*46:01): ≥ 20 µM
Kd (HLA-B*48:01): ≥ 20 µM
Kd (HLA-B*51:01): ≥ 20 µM
Kd (HLA-B*57:01): ≥ 20 µM
Kd (HLA-B*58:01; [11]): ≥ 20 µM
Kd (HLA-B*15:01 [5]): 0.288 µM
Kd (HLA-B*15:42; [13]): ≥ 5 µM
Kd (HLA-B*45:06; [13]): ≥ 5 µM
Kd (HLA-B*83:01; [13]): 0.109 µM

Sequence: NLLVTGFDT
IC50 (HLA-A*02:01 [6]): 2.4 µM

Sequence: LMMSSPPPI
Kd (HLA-A*02:01 [2]; [14]): 0.0123 µM
Kd (HLA-A*69:01; [14]): 0.174 µM
Kd (HLA-C*05:01): ≥ 20 µM
Kd (HLA-A*32:07): 0.0508 µM
Kd (HLA-A*32:15): 0.137 µM
Kd (HLA-B*15:42; [15]): ≥ 5 µM
Kd (HLA-B*45:06; [15]): ≥ 5 µM
Kd (HLA-B*83:01; [15]): ≥ 5 µM

Sequence: YRTLLMNEL
Kd (HLA-C*06:02; source organism: Influenza A virus (A/Waikato/7/2000(H3N2))): 0.009 µM
Kd (HLA-B*27:05 [7]): 0.0539 µM

Sequence: IPAKFLEGL
IC50 (HLA-B*35:01): 7.1 µM

Kd (HLA-A*01:01; [16]): ≥ 20 µM
Kd (HLA-A*02:01 [2]; [16]): 5.95 µM
Kd (HLA-A*26:01; [16]): ≥ 20 µM
Kd (HLA-A*30:01): ≥ 5 µM
Kd (HLA-A*31:01; [16]): ≥ 20 µM
Kd (HLA-A*69:01; [16]): ≥ 20 µM
Kd (HLA-B*07:02): ≥ 20 µM
Kd (HLA-B*08:01; [16]): ≥ 20 µM
Kd (HLA-B*15:01 [8]): ≥ 20 µM
Kd (HLA-B*27:05 [3]; [16]): 0.321 µM
Kd (HLA-B*40:01 [4]; [16]): ≥ 20 µM
Kd (HLA-B*58:01; [16]): ≥ 20 µM
Kd (HLA-B*73:01; [16]): ≥ 20 µM
Sequence: GRGQILLGK

Sequence: IPAEFLENF
IC50 (HLA-B*35:01): 1 µM

Sequence: TIPEALAAV
IC50 (HLA-A*02:01 [6]): 2.8 µM

Sequence: AEFVFSCGI
Kd (HLA-B*15:42; [17]): ≥ 5 µM
Kd (HLA-B*40:01 [9]): 0.0084 µM
Kd (HLA-B*45:06; [17]): ≥ 5 µM
Kd (HLA-B*83:01; [17]): ≥ 5 µM
Kd (HLA-C*04:01 [10]): ≥ 5 µM

Sequence: LYSRSFWFF
Kd (HLA-C*04:01 [1]; source organism: Campylobacter jejuni): ≥ 20 µM
Kd (HLA-C*07:02): 0.206 µM
Kd (HLA-A*24:02): ≤ 0.0001 µM
